Measurements from publication PMC7026398, “Structural and functional insight into the effect of AFF4 dimerization on activation of HIV-1 proviral transcription” (Cell Discovery, 2020).

B1: AFF1-THD (953-1210), wild type [not stated] / itself (parent)
chain: GKPQVKFDKQQADLHMREAKKMKQKAELMTDRVGKAFKYLEAVLSFIECGIATESESQSSKSAYSVYSETVDLIKFIMSLKSFSDATAPTQEKIFAVLCMRCQSILNMAMFRCKKDIAIKYSRTLNKHFESSSKVAQAPSPCIASTGTPSPLSPMPSPASSVGSQSSAGSVGSSGVAATISTPVTIQNMTSSYVTITSHVLTAFDLWEQAEALTRKNKEFFARLSTNVCTLALNSSLVDLVHYTRQGFQQLQELTKTP
B2: human AFF4-THD (902-1163), wild type [human] / itself (parent)
chain: RRTKLVFDDRNYSADHYLQEAKKLKHNADALSDRFEKAVYYLDAVVSFIECGNALEKNAQESKSPFPMYSETVDLIKYTMKLKNYLAPDATAADKRLTVLCLRCESLLYLRLFKLKKENALKYSKTLTEHLKNSYNNSQAPSPGLGSKAVGMPSPVSPKLSPGNSGNYSSGASSASASGSSVTIPQKIHQMAASYVQVTSNFLYATEIWDQAEQLSKEQKEFFAELDKVMGPLIFNASIMTDLVRYTRQGLHWLRQDAKLIS

Variants of: B1
Test: analytical gel filtration
Settings: with itself; read off a plot
For chain 1 F111A, the screen value was 9.4 mL.
chain 1 F111A Y193A V194A V200A was tested, and the screen value was 10.5 mL.
With chain 1 Y193A the screen value was 9.5 mL.

Variants of: B1
Test: sedimentation velocity analytical ultracentrifugation
Settings: with itself
chain 1 F111A Y193A V194A V200A showed a screen value of 27.2 kD.

Same assay, conditions: with itself; read off a plot
For chain 1 F111A Y193A V194A V200A, the screen value was 2.2 S.

Variants of: B2
Test: analytical gel filtration
Settings: with itself; read off a plot
In the case of chain 1 F113A, the screen value is reported as 10.6 mL.
With chain 1 F113A Y195A the screen value was 10.8 mL.
chain 1 Y195A showed a screen value of 10.9 mL.

Variants of: B2
Test: sedimentation velocity analytical ultracentrifugation
Settings: with itself
For chain 1 F113A Y195A, the screen value was 28.9 kD.

Same assay, conditions: with itself; read off a plot
For chain 1 F113A Y195A, the screen value was 2.2 S.
